The text below walks through data of publication PMC10522489, “Eukaryotic-like gephyrin and cognate membrane receptor coordinate corynebacterial cell division and polar elongation” (Nature Microbiology, 2023).

First the molecules themselves.
B1: Glp (gephyrin-like protein, Cgl0883), untagged (natural protein, Corynebacterium glutamicum ATCC13032, UniProt Q8NS03 1-419, looked up)
chain: MRSVEQQLSIVTEAAVAPEPVRIAIAEALGLMCAEEVQASRALPGFAQAAIDGYAVRAVDVGGEKSLSQQLPVAPPEKSLPVVGEVAAGSQQPLRLQPKQAVMVHTGAPLPMLADAVLPMAWSDRGRKRVTAQRPVRSGEFVRKEGDDIQPGDIAVSAGAVLGPAQIGLLAAVGRSKVLVYPRPRMSVISVGAELVDIDRQPGLGQVYDVNSYSLAAAGREAGADVYRYGIAAGEPRRIKEIIESQMLRSEIIVITGAVGGAGSAGVRQVLNELGDIDTERVAMHPGSVQGFGLLGENKIPCFLLPSNPVASLVIFETFVRPVVRMSLGKSNAARRVVRARALNHVVSVAGRKGFIRSRLMRDAETQDYLVEALGGATGAPSHLLAGLSEANGMIRIPEDVTEIRPGDVVDVIFLAQGR
notes: Glp (gephyrin-like protein, annotated molybdopterin molybdotransferase MoeA), Corynebacterium glutamicum ATCC13032, locus Cgl0883; Homodimer in the crystal structures; Called 'untagged Glp' in the BLI on GlpR; also called gephyrin-like repurposed molybdotransferase; MoeA paralogue; source: E. coli BL21 (DE3), purified (Ni-NTA, SUMO protease, SEC); not shown: His6, N-terminal, cleaved; SUMO, …
B2: FtsZCTD peptide (peptide)
peptide: DDLDVPSFLQ
notes: C-terminal 10 residues of FtsZ, Corynebacterium glutamicum; also called 10-residue peptide FtsZCTD; C-terminal domain of FtsZ; source: synthetic peptide, bought: Genosphere
B3: GlpR (Glp receptor, Cgl0885), C-terminal His tag (receptor, Corynebacterium glutamicum ATCC13032, UniProt Q8NS01 1-340, looked up)
chain: MLHVSGILVIGLIVVVWLVVLAPLLLRGQKPIAKAGEAFDDTRVISEGGSNIPSPRRPGLSSAQLDDEEDTDDVDDDYEIVDSPSIFRPRKEEPVEEDLDTDVELEEDIEVSLETDDYVEPAPVVEVSQEWNVEDHYELDDSYDTPLDHLHPAARARAYEDFQEHQPEQQPEVEEFDADDELTEEDVAFAQRRRGRGYYDPEADREFAASQYVRRQRTLLGLAATVVISVILGFVFGGWVWGLPAVALAATALYLMALRSQVREENALRARRIRRLRRSRMGVRNSEDLPSRLRRPGAVVLELDDESPDFEGLPTVAMPEEPYYEEPRRNIRHLGQRRVS
notes: GlpR, integral membrane protein with 3 predicted transmembrane helices, Corynebacterium glutamicum ATCC13032, locus Cgl0885; In 0.05% DDM; also called C-terminal His-tagged GlpR; immobilized GlpR; source: E. coli BL21 (DE3), purified from membranes in DDM (Ni-NTA, SEC); not shown: His6, C-terminal, kept

Data set [1] deals with Biotinylated His-GlpR (Corynebacterium glutamicum ATCC13032). Nature of the data set: BLI; biotinylated GlpR immobilised on streptavidin biosensors; Wag31 1-61 (DivIVA) 200–3.15 μM in buffer B (25 mM HEPES pH 7.5, 150 mM NaCl, 10% glycerol, 0.05% DDM, 1 mg/ml BSA); 25 °C; apparent Kd from steady-state fit, one-site model.
Data set [2] shares this target. Kind of data set: BLI; biotinylated GlpR immobilised on streptavidin biosensors; Wag31 150–2.34 μM in buffer A (20 mM HEPES pH 8.5, 150 mM NaCl, DDM 0.05%); 25 °C; apparent Kd from steady-state fit, one-site model.
Another data set concerns the target T1, His-SUMO-FtsZ (Corynebacterium glutamicum, UniProt P94337 1-442).
T1 construct: FtsZ, tubulin-like cell division protein, Corynebacterium glutamicum; Captured on Ni-NTA biosensors; also called 6xHis-SUMO-FtsZ; immobilized SUMO-FtsZ; source: E. coli BL21 (DE3), purified (Ni-NTA, SEC); not shown: His6, N-terminal, kept; SUMO, N-terminal, kept
T1 sequence (looked up): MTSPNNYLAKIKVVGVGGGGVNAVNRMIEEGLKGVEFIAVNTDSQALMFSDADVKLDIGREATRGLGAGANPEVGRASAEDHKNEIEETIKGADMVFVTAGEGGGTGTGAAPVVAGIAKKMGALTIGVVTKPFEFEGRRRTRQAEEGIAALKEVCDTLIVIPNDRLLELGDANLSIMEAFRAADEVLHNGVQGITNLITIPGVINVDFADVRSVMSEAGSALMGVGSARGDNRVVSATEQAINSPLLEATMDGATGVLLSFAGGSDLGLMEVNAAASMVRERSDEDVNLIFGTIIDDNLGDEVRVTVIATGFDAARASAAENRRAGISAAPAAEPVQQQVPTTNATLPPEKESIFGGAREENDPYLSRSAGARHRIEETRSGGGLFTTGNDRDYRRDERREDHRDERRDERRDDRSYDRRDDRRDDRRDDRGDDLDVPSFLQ
Kind of data set: BLI; His-SUMO-FtsZ immobilised on Ni-NTA biosensors; Glp 80–1.25 μM in 2-fold dilutions; polymerization buffer (25 mM Pipes pH 6.9, 100 mM KCl, 10 mM MgCl2); 25 °C; apparent Kd from steady-state fit, one-site model. Particulars: both partners purified.

Data set [3] concerns the molecule itself. Nature of the data set: crystal structure; 0.34 mM Glp with 1.7 mM FtsZCTD peptide; 0.1 M NaCl, 0.1 M Bis-Tris pH 6.5, 1.5 M (NH4)2SO4; 2.7 Å.
Data set [4] concerns the target B1. Nature of the data set: differential scanning fluorescence (thermofluor); Glp 3 μg in 25 mM HEPES pH 8, 150 mM NaCl, 5% glycerol with or without 1 mM FtsZCTD; Sypro Orange; 25 to 95 °C. As to conditions: both partners purified.
Data set [5] deals with B1. Kind of data set: BLI; C-terminal His-tagged GlpR immobilised on Ni-NTA biosensors; untagged Glp variants (Glp 100–1.56 nM) in 25 mM HEPES pH 7.5, 150 mM NaCl, 10% glycerol, 0.05% DDM, 1 mg/ml BSA; 25 °C; apparent Kd from steady-state fit. As to conditions: both partners purified.

Consider “Wag31_(1–61) (N-terminal DivIVA domain of Wag31) (domain or fragment)”, for which the Kd in data set [1] turned out to be 14.9 µM.
Turning to Wag31, full length (natural protein), the Kd in data set [2] was found to be 43.4 µM.
B1: in the data set with His-SUMO-FtsZ, the Kd was 4.7 ± 0.77 µM. Also, the “stoichiometry N” value in data set [3] was 2.
As to B2, the “Tm shift of Glp” value in data set [4] came to 2 °C.
On to B3, for which the Kd in data set [5] is 0.0055 ± 0.00075 µM.
